Measured values from patent publication US20190184026A1.
Blank lines part the entries; values can stand above or below the substance they belong to.

Columns and labels:
Assay in all cases: cell-based or functional assay
[1] = target: CD3 (on T cells of human PBMCs) (human)
human GLP-1R (human) = human GLP-1R (human) (UniProt P43220)
[2] = target: lactating receptors of the Nb2 cells (rat) (UniProt P05710)
Sequence of lactating receptors of the Nb2 cells (rat) (P05710 20-610): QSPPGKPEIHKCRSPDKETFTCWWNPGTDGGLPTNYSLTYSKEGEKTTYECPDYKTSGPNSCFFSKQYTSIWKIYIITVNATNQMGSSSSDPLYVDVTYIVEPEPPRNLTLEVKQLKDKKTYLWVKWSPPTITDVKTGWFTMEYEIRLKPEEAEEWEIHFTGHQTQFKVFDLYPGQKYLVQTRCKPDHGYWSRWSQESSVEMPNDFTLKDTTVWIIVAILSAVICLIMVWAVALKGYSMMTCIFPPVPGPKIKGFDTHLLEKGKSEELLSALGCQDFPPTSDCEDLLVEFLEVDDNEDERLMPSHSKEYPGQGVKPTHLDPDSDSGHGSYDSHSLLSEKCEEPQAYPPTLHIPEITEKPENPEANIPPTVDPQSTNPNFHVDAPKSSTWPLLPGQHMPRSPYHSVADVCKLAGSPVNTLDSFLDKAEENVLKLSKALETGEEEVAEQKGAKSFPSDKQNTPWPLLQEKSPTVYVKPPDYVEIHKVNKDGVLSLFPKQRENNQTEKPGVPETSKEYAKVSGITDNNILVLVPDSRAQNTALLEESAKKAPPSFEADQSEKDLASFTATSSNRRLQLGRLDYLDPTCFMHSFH

Sequence of human GLP-1R (human) (P43220 24-463): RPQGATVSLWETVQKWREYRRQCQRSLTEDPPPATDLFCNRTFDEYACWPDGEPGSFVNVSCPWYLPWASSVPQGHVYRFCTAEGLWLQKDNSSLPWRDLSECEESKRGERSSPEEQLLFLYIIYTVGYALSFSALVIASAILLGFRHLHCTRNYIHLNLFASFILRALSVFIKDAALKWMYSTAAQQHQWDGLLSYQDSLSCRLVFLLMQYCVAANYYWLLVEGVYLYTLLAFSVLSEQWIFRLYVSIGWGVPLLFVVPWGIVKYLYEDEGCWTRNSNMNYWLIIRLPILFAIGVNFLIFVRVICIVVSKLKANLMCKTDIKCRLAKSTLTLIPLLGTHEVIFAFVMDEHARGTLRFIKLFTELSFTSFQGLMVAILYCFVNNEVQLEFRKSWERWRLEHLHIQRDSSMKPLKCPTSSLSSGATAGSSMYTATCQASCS

EC50 of activation of human PBMCs (CCK-8, absorbance at 492 nM) [1]: 0.015 nM
Substance: anti-CD3 monoclonal antibody OKT3

in vitro activity EC50 (CRE-Luc reporter, CHO-K1 cells with human GLP-1R) (human GLP-1R (human)): 0.0299 nM
Substance: duraglutide (Eli Lilly, Cat. No. 9301897) (Fc fusion)

EC50 (Nb2 cell proliferation, CCK-8) [2]: 0.00694 nM
Substance: hGH (from UniProt P01241 27-217) (ligand)
